Measured values: US20150037348A1 (AbbVie / Abbott, published 2015)
Residue numbers refer to the chain shown, from its start. “And” between values parts separate entries of the source, which are not always exact repeats. Equal values may be shown once. Each block holds one binder with its values, some of them ahead of it.

Experiments:
human IL-12 [1] = molecular target: T1, human IL-12 (human, UniProt P29459 23-219; P29460 23-328); experiment: cell-based or functional assay
T1 sequence (looked up) 1: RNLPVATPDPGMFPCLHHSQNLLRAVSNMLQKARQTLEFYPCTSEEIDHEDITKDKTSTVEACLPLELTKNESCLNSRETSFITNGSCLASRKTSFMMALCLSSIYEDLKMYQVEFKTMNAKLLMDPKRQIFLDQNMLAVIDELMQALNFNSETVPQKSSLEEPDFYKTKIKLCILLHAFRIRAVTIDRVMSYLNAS
T1 sequence (looked up) 2: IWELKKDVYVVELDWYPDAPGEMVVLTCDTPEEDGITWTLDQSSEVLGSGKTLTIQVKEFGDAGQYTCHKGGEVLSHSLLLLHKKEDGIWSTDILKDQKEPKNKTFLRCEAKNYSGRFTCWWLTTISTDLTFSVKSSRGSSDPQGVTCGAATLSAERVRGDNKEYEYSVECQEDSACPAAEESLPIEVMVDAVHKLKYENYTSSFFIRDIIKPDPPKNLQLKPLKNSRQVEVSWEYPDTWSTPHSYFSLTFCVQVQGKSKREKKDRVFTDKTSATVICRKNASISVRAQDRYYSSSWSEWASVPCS

human IL-12 [2] = molecular target: T1, human IL-12; experiment: SPR (BIAcore), IL-12 chip
Text: The system utilizes the optical properties of SPR to detect alterations in protein concentrations within a dextran biosensor matrix. Proteins are covalently bound to the dextran matrix at known concentrations. […] To determine the off rate (koff), on rate (kₒₙ), association rate (Ka) and dissociation rate (Kd) constants, BIAcore kinetic evaluation software (version 2.1) was used.

human IL-12 [3] = molecular target: T1, human IL-12; experiment: RB assay: 125I-hIL-12 binding to PHA blasts
Method: (§1) PHA blast cells isolated as described above, were washed once and resuspended in binding buffer to a cell density of 2×10⁷ cells/ml. […] The cell pellet was examined for cell bound radioactivity using a gamma counter. […] Incubations were carried out in duplicate.

[4] = molecular target: T2, recombinant human IL-12 (rhIL-12) (human, UniProt P29459 23-219; P29460 23-328); experiment: cell-based or functional assay
T2 sequence (looked up) 1: T1 sequence (looked up) 1
T2 sequence (looked up) 2: T1 sequence (looked up) 2

[5] = molecular target: T2, recombinant human IL-12 (rhIL-12); experiment: receptor binding assay, 125I-hIL-12 on PHA blasts
Method: as §1

[6] = molecular target: T2, recombinant human IL-12 (rhIL-12); experiment: BIAcore SPR, IL-12 on chip
[7] = molecular target: T2, recombinant human IL-12 (rhIL-12); experiment: cell-based or functional assay; remark: listed apart in the source

- PHA assay IC50 (human IL-12 [1]): 60 nM
- koff (human IL-12 [2]): 0.0074 s⁻¹
B1: 26-1 (scFv, V domains shown)
VH: QVQLVQSGGGVVQPGRSLRLSCAASGFTFSSYGMHWVRQAPGKGLEWVAFIRYDGSNKYYADSVKGRFTISRDNSKNTLYLQMKSLRAEDTAVYYCTTHGSHDNWGQGTMVTVSS
VL: SYVLTQPPSVSGTPGQRVTISCSGGRSNIGSNTVKWYQQLPGTAPKLLIYGNDQRPSGVPDRFSGSKSGTSASLAITGVQAEDEADYYCQSYDSSLWGSRVFGTGTKVTVL
notes: scFv; also called 26-1 (2, 3)

- PHA assay IC50 (human IL-12 [1]): 2 nM
- koff (human IL-12 [2]): 0.00273 s⁻¹
- IC50 (human IL-12 [3]): 0.6 nM
B2: 149-6 (scFv, V domains shown)
VH: B1 VH
VL: SYVLTQPPSVSGTPGQRVTISCSGGRSNIVSNTVKWYQQLPGTAPKLLIYGNDQRPSGVPDRFSGSKSGTSASLAITGVQAEDEADYYCQSYDRGFTGSRVFGTGTKVTVLG
notes: scFv

- PHA assay IC50 [4]: 0.14 nM
- IC50 [5]: 0.04 nM
- koff [6]: 0.000275 s⁻¹
B3: Y61 (scFv, V domains shown)
VH: B1 VH with T97K
VL: B1 VL with S94R, S95G, L96T, W97H, G98P, S99A, R100L, V101L
notes: also called Y61 scFv; clone Y61; not shown: scFv linker and any tags

- PHA assay IC50 (human IL-12 [1]): 6 nM
- koff (human IL-12 [2]): 0.00046 s⁻¹
B4: 136-15 germline (scFv, V domains shown)
VH: B1 VH with Q6E, K84N, T97K
VL: QSVLTQPPSVSGAPGQRVTISCSGSRSNIGSNTVKWYQQLPGTAPKLLIYGNDQRPSGVPDRFSGSKSGTSASLAITGLQAEDEADYYCQTYDKGFTGSSVFGTGTKVTVL

- PHA assay IC50 (human IL-12 [1]): > 10 nM
- koff (human IL-12 [2]): 8.9e-05 s⁻¹
- IC50 (human IL-12 [3]): 0.45 nM
B5: Y17 (scFv, V domains shown)
VH: B1 VH with T97K
VL: B1 VL with S94R, S95G, L96S, W97A, G98P, S99M, R100I, V101N
notes: scFv

- PHA assay IC50 (human IL-12 [1]): 600 nM
- koff (human IL-12 [2]): 0.0164 s⁻¹
- IC50 (human IL-12 [3]): 200 nM
B6: 78-34 (scFv, V domains shown)
VH: B1 VH with H99S, H102Y, N104Y
VL: B1 VL with S94R, S95G, L96F, W97T
notes: scFv

- PHA assay IC50 [4]: 1 nM
- IC50 [5]: 0.1 nM
- koff [6]: 0.000508 s⁻¹
B7: G6 (scFv, V domains shown)
VH: B1 VH with T97K
VL: B1 VL with S94R, S95G, L96T, W97H, G98P, S99L, R100T, V101I
notes: scFv clone

- PHA assay IC50 (human IL-12 [1]): 30 nM and 20 nM
- koff (human IL-12 [2]): 0.0045 s⁻¹
- IC50 (human IL-12 [3]): 2 nM
B8: 101-11 (scFv, V domains shown)
VH: B1 VH
VL: B1 VL with S94R, S95G, L96F, W97T
notes: scFv

- PHA assay IC50 (human IL-12 [1]): 1.5 nM
- koff (human IL-12 [2]): 0.00053 s⁻¹
B9: 103-8 & 2 (scFv, V domains shown)
VH: B1 VH with T97K
VL: B4 VL with Q1S, S2Y, A13T, S25G, L79V
notes: scFv

- PHA assay IC50 (human IL-12 [1]): 0.9 nM
- koff (human IL-12 [2]): 0.00016 s⁻¹
- IC50 (human IL-12 [3]): 0.086 nM
B10: 103-4 (scFv, V domains shown)
VH: B1 VH
VL: B1 VL with G30V, S94R, S95G, L96F, W97T, S99A
notes: scFv

- PHA assay IC50 (human IL-12 [1]): 1.2 nM
- koff (human IL-12 [2]): 0.00067 s⁻¹
- IC50 (human IL-12 [3]): 0.04 nM
B11: 103-14 & 9 (scFv, V domains shown)
VH: B1 VH with T97K
VL: B1 VL with S94R, S95G, L96F, W97T, R100M
notes: scFv

- PHA assay IC50 (human IL-12 [1]): 3 nM
- koff (human IL-12 [2]): 0.00113 s⁻¹
- IC50 (human IL-12 [3]): 0.9 nM
B12: 149-7 (scFv, V domains shown)
VH: B1 VH
VL: B1 VL with S94R, S95D, L96F, W97T
notes: scFv

- PHA assay IC50 (human IL-12 [1]): 1 nM
- koff (human IL-12 [2]): 0.00037 s⁻¹
- IC50 (human IL-12 [3]): 0.14 nM
B13: 103-7 (scFv, V domains shown)
VH: B1 VH with N104D
VL: B1 VL with S94R, S95D, L96F, W97T, S99T
notes: scFv

- PHA assay IC50 (human IL-12 [1]): 1.5 nM
- koff (human IL-12 [2]): 0.00033 s⁻¹
- IC50 (human IL-12 [3]): 0.06 nM
B14: 103-8 (scFv, V domains shown)
VH: B1 VH with T97K
VL: B4 VL with Q1S, S2Y, A13T, S25G, L79V
notes: scFv

- PHA assay IC50 (human IL-12 [1]): 2 nM
- koff (human IL-12 [2]): 0.00074 s⁻¹
- IC50 (human IL-12 [3]): 0.1 nM
B15: 136-15 (scFv, V domains shown)
VH: B1 VH with T97K
VL: B2 VL with G25S, V30G, S91T, R94K, R100S
notes: scFv

- PHA assay IC50 [4]: 0.4 nM
- IC50 [5]: 0.03 nM
- koff [6]: 0.000304 s⁻¹
B16: AO3 (scFv, V domains shown)
VH: B1 VH with T97K
VL: B1 VL with S94R, S95G, L96T, W97H, G98P, S99L, R100T, V101M
notes: scFv clone; only the CDR3s are tied to it

- PHA assay IC50 (human IL-12 [1]): 200 nM
- koff (human IL-12 [2]): 0.0134 s⁻¹
B17: 70-1 (scFv, V domains shown)
VH: B1 VH
VL: B1 VL with W97R
notes: scFv

- PHA assay IC50 [4]: 1 nM
- IC50 [5]: 0.05 nM
- koff [6]: 0.000661 s⁻¹
B18: Y177 (scFv, V domains shown)
VH: B1 VH with T97K
VL: B1 VL with S94R, S95G, L96S, W97H, G98P, S99T, R100L, V101I
notes: scFv clone

- PHA assay IC50 [4]: 2.6 nM
- IC50 [5]: 0.055 nM
- koff [6]: 0.000508 s⁻¹
B19: Y38 (scFv, V domains shown)
VH: B1 VH with T97K
VL: B1 VL with S94R, S95G, L96T, W97H, G98P, R100I, V101T
notes: scFv clone

- PHA assay IC50 (human IL-12 [1]): 3 nM
- koff (human IL-12 [2]): 0.00102 s⁻¹
- IC50 (human IL-12 [3]): 0.12 nM
B20: 149-5 (scFv, V domains shown)
VH: B1 VH with N104T
VL: B2 VL with V30G, R94S, G95S, F96L, T97W, S99T
notes: scFv

- PHA assay IC50 [4]: 10 nM
- IC50 [5]: 0.35 nM
- koff [6]: 0.00107 s⁻¹
B21: C6 (scFv, V domains shown)
VH: B1 VH with T97K
VL: B1 VL with S94R, S95G, L96Q, W97T, G98P, R100I, V101T
notes: scFv clone

- PHA assay IC50 (human IL-12 [1]): 4 nM
- koff (human IL-12 [2]): 0.0143 s⁻¹
- IC50 (human IL-12 [3]): 0.2 nM
B22: 149-11 (scFv, V domains shown)
VH: B1 VH with G106S
VL: B1 VL with S94N, S95G, L96F, W97T, S99A
notes: scFv

- PHA assay IC50 [4]: 2 nM
- IC50 [5]: 0.06 nM
- koff [6]: 0.000755 s⁻¹
B23: Y174 (scFv, V domains shown)
VH: B1 VH with T97K
VL: B1 VL with S94R, S95G, L96T, W97T, G98P, S99A, R100P, V101E
notes: scFv clone

- PHA assay IC50 (human IL-12 [1]): 3 nM
- koff (human IL-12 [2]): 0.00137 s⁻¹
- IC50 (human IL-12 [3]): 0.08 nM
B24: 149-4 (scFv, V domains shown)
VH: B1 VH with G106S
VL: B1 VL with S94R, S95G, L96F, W97T
notes: scFv

- PHA assay IC50 [4]: 0.45 nM
- IC50 [5]: 0.03 nM
- koff [6]: 0.000592 s⁻¹
B25: Y139 (scFv, V domains shown)
VH: B1 VH with T97K
VL: B1 VL with S94R, S95G, L96S, W97H, G98P, S99A, R100L, V101T
notes: scFv clone

- PHA assay IC50 [4]: 4.3 nM
- IC50 [5]: 0.04 nM
- koff [6]: 0.000617 s⁻¹
B26: Y45 (scFv, V domains shown)
VH: B1 VH with T97K
VL: B1 VL with S94R, S95G, L96T, W97D, G98P, S99A, R100I
notes: scFv clone

- PHA assay IC50 (human IL-12 [1]): 600 nM
- IC50 (human IL-12 [3]): 200 nM
B27: 79-1 (scFv, V domains shown)
VH: B1 VH with H99S, H102Y, N104Y
VL: B1 VL
notes: scFv

- PHA assay IC50 (M) p70:p40 1:0 [7]: 2e-09 M
- PHA assay IC50 (M) p70:p40 1:20 [7]: 5e-09 M
- PHA assay IC50 (M) p70:p40 1:50 [7]: 4e-09 M
B28: 136-15 (scFv)
chain: QVQLVQSGGGVVQPGRSLRLSCAASGFTFSSYGMHWVRQAPGKGLEWVAFIRYDGSNKYYADSVKGRFTISRDNSKNTLYLQMKSLRAEDTAVYYCKTHGSHDNWGQGTMVTVSSSYVLTQPPSVSGTPGQRVTISCSGSRSNIGSNTVKWYQQLPGTAPKLLIYGNDQRPSGVPDRFSGSKSGTSASLAITGVQAEDEADYYCQTYDKGFTGSSVFGTGTKVTVLG

- PHA assay IC50 (M) p70:p40 1:0 [7]: 6.5e-09 M
- PHA assay IC50 (M) p70:p40 1:20 [7]: 7e-09 M
- PHA assay IC50 (M) p70:p40 1:50 [7]: 4e-09 M
B29: 149-5 (scFv)
chain: B28 chain with K97T, N104T, S140G, T206S, K209S, G210S, F211L, T212W, S214T, S215R
